According to patent publication US20260167684A1 (MERIDA BIOSCIENCES, published 2026):
Substitutions are numbered along the chain they refer to. Names may count otherwise. One block for each binder: values may come before it.

Tests used:
[1] = target: T1, FcγRIIB expressed on cells (CHO-FcγRIIB+ cells; primary human cells that express FcγRIIB) (human, UniProt P31994 43-310); test: flow cytometry, CHO cells expressing FcγRIIB, molecule pre-complexed with M22-PE at 1:1 or 4:1 molar ratio, with and without anti-FcγRIIB antibody 2B6
T1 construct: whole, on cells; also called FcγRIIB-expressing CHO cells
T1 sequence (looked up): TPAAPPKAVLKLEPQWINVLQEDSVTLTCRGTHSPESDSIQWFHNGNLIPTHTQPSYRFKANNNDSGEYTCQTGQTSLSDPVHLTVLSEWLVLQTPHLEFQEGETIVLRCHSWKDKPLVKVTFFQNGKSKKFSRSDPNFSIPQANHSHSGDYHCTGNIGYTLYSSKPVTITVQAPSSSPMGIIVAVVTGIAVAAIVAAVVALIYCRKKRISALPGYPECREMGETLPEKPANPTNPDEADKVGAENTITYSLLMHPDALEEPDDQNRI
Description: Cells expressing FcγRIIB are seeded in a 96-well plate and stained with Live/Dead Violet Fixable Dye. Next, the pre-complexed molecule and autoantibody are incubated with the cells at various concentrations at either 4C (to assess binding) or 37C (to assess uptake). After incubation, cells are washed with PBS (binding) or acidic media to remove surface-bound complexes (uptake). Cellular fluorescence is determined by flow cytometry.

human C1q = target: T2, human C1q (human, UniProt P02745 23-245; P02746 28-253; P02747 29-245); test: ELISA (n=2), serial dilutions of the molecule coated on the plate, human C1q at 5 µg/mL, anti-C1q HRP detection
T2 construct: also called complement (C1q)
Description: An IgG4 was used as a negative control.
Varying dilutions of each exemplary molecule or one of the controls were tested for binding to C1q by ELISA where serial dilutions of molecules or controls were coated on a plate (at 0.01 μg/mL, 0.1 μg/mL, 1.0 μg/mL, 10.0 μg/mL, 100.0 μg/mL, and 1000 μg/mL) overnight at 4 C. After blocking and subsequent wash steps, human C1q at 5 μg/mL was added to the ELISA plate for 1 hour at room temperature. The plate was washed and a sheep polyclonal anti-C1q HRP antibody at 1:200 dilution was added and incubated for an additional 1 hour. Development of the ELISA plate was carried out by addition of TMB. Color development was then stopped with addition of 3N HCl. Plate absorbance was read at 450 nm using a plate ready.

FcγRIIB [2] = target: T3, FcγRIIB (human, UniProt P31994 46-217, limits assumed); test: SPR, molecule captured on the sensor chip, FcγRIIB as analyte; steady state plot of response against analyte concentration
T3 construct: Soluble protein used in SPR
T3 sequence (looked up): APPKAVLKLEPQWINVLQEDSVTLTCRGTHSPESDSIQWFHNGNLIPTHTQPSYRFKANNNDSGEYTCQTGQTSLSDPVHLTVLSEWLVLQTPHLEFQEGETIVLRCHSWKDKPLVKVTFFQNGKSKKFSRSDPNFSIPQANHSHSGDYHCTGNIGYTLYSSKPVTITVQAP

FcγRIIA167R [3] = target: T4, FcγRIIA167R (UniProt P12318 36-218); test: SPR; molecule captured on CM5 chip, FcγR as analyte; steady-state fit
T4 construct: Soluble protein used in SPR
T4 sequence (looked up): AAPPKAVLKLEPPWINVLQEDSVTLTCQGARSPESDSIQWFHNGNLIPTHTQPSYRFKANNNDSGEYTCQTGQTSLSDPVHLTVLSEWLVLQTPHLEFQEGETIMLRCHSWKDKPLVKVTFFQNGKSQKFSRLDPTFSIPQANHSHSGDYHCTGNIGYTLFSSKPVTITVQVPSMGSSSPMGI
Description: (§1) Binding assays using SPR were performed to determine the binding affinity of the exemplary molecules. Molecules were captured on a CM5 SPR chip. Increasing concentrations of FcγR analyte (FcγRIIA167H, FcγRIIA167R or FcγRIIB) were subsequently injected over the captured molecules and a single dissociation performed using single cycle kinetics. The data was then analyzed using steady state analysis which is suitable for low affinity interactions. In particular, a plot of response at equilibrium against the molecule concentration was generated.

FcγRIIB [4] = target: T3, FcγRIIB; test: as above
Description: as §1

FcγRIIA167H [5] = target: T5, FcγRIIA167H (UniProt P12318 36-218); test: SPR, molecule captured on sensor chip, FcγRIIA167H as analyte, steady-state plot of response against concentration
T5 construct: Soluble protein used in SPR
T5 sequence (looked up): T4 sequence (looked up) with R132H
Description: as §1

FcγRIIA167R [6] = target: T4, FcγRIIA167R; test: SPR, molecule captured on the sensor chip, FcγRIIA167R as analyte
Description: as §1

FcγRIIA167H [7] = target: T5, FcγRIIA167H; test: SPR, molecule captured on the sensor chip, FcγRIIA167H as analyte
Description: as §1

T2 sequence (P02745 23-245 limits assumed, chain 1 of 3): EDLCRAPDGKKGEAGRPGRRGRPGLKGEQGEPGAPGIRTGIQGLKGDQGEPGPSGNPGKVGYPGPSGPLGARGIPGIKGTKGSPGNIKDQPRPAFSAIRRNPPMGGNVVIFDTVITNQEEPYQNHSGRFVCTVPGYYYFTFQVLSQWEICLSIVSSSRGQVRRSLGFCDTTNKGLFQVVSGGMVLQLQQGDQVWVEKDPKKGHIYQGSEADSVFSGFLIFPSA
T2 sequence (P02746 28-253 limits assumed, chain 2 of 3): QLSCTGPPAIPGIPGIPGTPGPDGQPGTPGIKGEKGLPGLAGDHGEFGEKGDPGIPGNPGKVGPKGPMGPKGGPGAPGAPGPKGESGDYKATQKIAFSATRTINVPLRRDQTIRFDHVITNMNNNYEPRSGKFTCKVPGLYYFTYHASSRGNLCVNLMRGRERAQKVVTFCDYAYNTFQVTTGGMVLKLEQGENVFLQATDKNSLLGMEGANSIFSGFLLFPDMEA
T2 sequence (P02747 29-245 limits assumed, chain 3 of 3): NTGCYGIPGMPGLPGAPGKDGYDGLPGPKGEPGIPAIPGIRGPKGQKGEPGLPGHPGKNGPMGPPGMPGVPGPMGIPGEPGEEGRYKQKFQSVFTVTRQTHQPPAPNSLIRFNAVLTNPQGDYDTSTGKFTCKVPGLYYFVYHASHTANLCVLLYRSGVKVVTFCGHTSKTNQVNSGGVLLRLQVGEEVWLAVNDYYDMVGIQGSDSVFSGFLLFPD

- binding result [1]: binds
- binding result (human C1q): no binding (tested: 100 µg/mL)
- binding result (FcγRIIB [2]): binds
B1: Variant E3 (Fc fusion)
chain 1: MGCSSPPCECHQEEDFRVTCKDIQRIPSLPPSTQTLKLIETHLRTIPSHAFSNLPNISRIYVSIDVTLQQLESHSFYNLSKVTHIEIRNTPNLTYIDPDALKELPLLKFLGIFNTGLKMFPPLTKVYSTDIFFILEITDNPYMTSIPRNAFQGLCNETLTLKLYNNGFTSVQGYAFNGTKLDAVYLNKNKYLTVIDKDAFGGVYSGPSLLDVSQTSVTALPSKGLEHLKELRARNTWTLDKTHTCPPCPAPELLGGDSVFLFPPKPKDTLMISRTPEVTCVVVDVSHEDPEVKFNWYVDGVEVHNAKTKPREEQYNSTYRVVSVLTVLHQDWLNGKEYKCKVSNKALPAPIEKTISKAKGQPREPQVYTLPPCRDELTKNQVSLWCLVKGFYPSDIAVEWESNGQPENNYKTTPPVLDSDGSFFLYSKLTVDKSRWQQGNVFSCSVLHEALHSHYTQKSLSLSPGK
chain 2: DKTHTCPPCPAPELLGGDSVFLFPPKPKDTLMISRTPEVTCVVVDVSHEDPEVKFNWYVDGVEVHNAKTKPREEQYNSTYRVVSVLTVLHQDWLNGKEYKCKVSNKALPAPIEKTISKAKGQPREPQVCTLPPSRDELTKNQVSLSCAVKGFYPSDIAVEWESNGQPENNYKTTPPVLDSDGSFFLVSKLTVDKSRWQQGNVFSCSVLHEALHSHYTQKSLSLSPGK
notes: Knob-in-hole heterodimer; also called TSHR260 2P2R huIgG1 Fc P238D/LS; TSHR260 2P2R huIgG1 with P238D and LS

- Kd (FcγRIIA167R [3]): 3.49 µM
- Kd (FcγRIIB [4]): 0.987 µM
- binding result (FcγRIIA167H [5]): no binding (tested: about 2.4e-6 M)
B2: Variant G11 (Fc fusion)
chain 1: B1 chain 1 with D289E, P290G, D375E, L377M, L447M, S453N
chain 2: B1 chain 2 with D50E, P51G, D136E, L138M, L208M, S214N
notes: Knob-in-hole heterodimer; also called TSHR260 2P2R huIgG1 Fc P238D/D270E/P271G

- binding result (FcγRIIA167R [6]): no binding (tested: about 2.4e-6 M)
- Kd (FcγRIIB [4]): 3.65 µM
- binding result (FcγRIIA167H [7]): no binding (tested: about 2.4e-6 M)
B3: Variant G3 (Fc fusion)
chain 1: MGCSSPPCECHQEEDFRVTCKDIQRIPSLPPSTQTLKLIETHLRTIPSHAFSNLPNISRIYVSIDVTLQQLESHSFYNLSKVTHIEIRNTPNLTYIDPDALKELPLLKFLGIFNTGLKMFPPLTKVYSTDIFFILEITDNPYMTSIPRNAFQGLCNETLTLKLYNNGFTSVQGYAFNGTKLDAVYLNKNKYLTVIDKDAFGGVYSGPSLLDVSQTSVTALPSKGLEHLKELRARNTWTLDKTHTCPPCPAPVDFRDPLVFLFPPKPKDTLMISRTPEVTCVVVDVSPEDPEVKFNWYVDGVEVHNAKTKPQEEQYNGAYRVVSVLTVLHQDWLNGKEYKCKVSNKLAPHPIIKTISKAKGQPREPQVYTLPPCRDELTKNQVSLWCLVKGFYPSDIAVEWESNGQPENNYKTTPPVLDSDGSFFLYSKLTVDKSRWQQGNVFSCSVMHEALHNHYTQKSLSLSPGK
chain 2: DKTHTCPPCPAPVDFRDPLVFLFPPKPKDTLMISRTPEVTCVVVDVSPEDPEVKFNWYVDGVEVHNAKTKPQEEQYNGAYRVVSVLTVLHQDWLNGKEYKCKVSNKLAPHPIIKTISKAKGQPREPQVCTLPPSRDELTKNQVSLSCAVKGFYPSDIAVEWESNGQPENNYKTTPPVLDSDGSFFLVSKLTVDKSRWQQGNVFSCSVMHEALHNHYTQKSLSLSPGK
notes: Knob-in-hole heterodimer; also called TSHR260 2P2R huIgG1 Fc E233V/L234D/L235F/G236R/G237D/S239L/H268P/R292Q/S298G/T299A/A327L/L328A/A330H/E333I
